In patent US20220111022A1 (IMMATICS BIOTECHNOLOGIES, published 2022):

The binders below were run against T1, HLA-A*02:01 (human) (assay: UV-ligand exchange, anti-b2m ELISA; peptide exchange yield grade).
T1 construct: MHC monomers first loaded with a UV-sensitive peptide (not identified) that is cleaved and exchanged for the test peptide; captured on streptavidin-coated plates and detected with anti-β2m; also called peptide-receptive MHC molecules; MHC class I
Excerpt: Candidate peptides for T cell based therapies according to the present invention were further tested for their MHC binding capacity (affinity). The individual peptide-MHC complexes were produced by UV-ligand exchange, where a UV-sensitive peptide is cleaved upon UV-irradiation and exchanged with the peptide of interest as analyzed. Only peptide candidates that can effectively bind and stabilize the peptide-receptive MHC molecules prevent dissociation of the MHC complexes. To determine the yield of the exchange reaction, an ELISA was performed based on the detection of the light chain (β2m) of stabilized MHC complexes. The assay was performed as generally described in Rodenko et al. (Rodenko et al., 2006).
96 well MAXISorp plates (NUNC) were coated over night with 2 μg/ml streptavidin in PBS at room temperature, washed 4× and blocked for 1 h at 37° C. in 2% BSA containing blocking buffer. Refolded HLA-A*02:01/MLA-001 monomers served as standards, covering the range of 15-500 ng/ml. Peptide-MHC monomers of the UV-exchange reaction were diluted 100-fold in blocking buffer. Samples were incubated for 1 h at 37° C., washed four times, incubated with 2 μg/ml HRP conjugated anti-β2m for 1h at 37° C., washed again and detected with TMB solution that is stopped with […]. Absorption was measured at 450 nm. Candidate peptides that show a high exchange yield (preferably higher than 50%, most preferred higher than 75%) are generally preferred for a generation and production of antibodies or fragments thereof, and/or T cell receptors or fragments thereof, as they show sufficient avidity to the MHC molecules and prevent dissociation of the MHC complexes.

Binder | peptide exchange yield
YLWWVNDQSL | ≥ 75%
KLAPEDLADLTAL | ≥ 75%
KLDASLPAL | ≥ 75%
KLLDGSQRV | 50 to 75%
NLLADVSTV | 50 to 75%
NLLDHSSMFL | ≥ 75%
